According to patent US20180162947A1 (UCB, published 2018):

Biological target: T1, mouse CSF-1R (form not stated) (mouse, UniProt P09581 20-511, limits assumed)
T1 construct: also called murine CSF-1R
T1 sequence (looked up): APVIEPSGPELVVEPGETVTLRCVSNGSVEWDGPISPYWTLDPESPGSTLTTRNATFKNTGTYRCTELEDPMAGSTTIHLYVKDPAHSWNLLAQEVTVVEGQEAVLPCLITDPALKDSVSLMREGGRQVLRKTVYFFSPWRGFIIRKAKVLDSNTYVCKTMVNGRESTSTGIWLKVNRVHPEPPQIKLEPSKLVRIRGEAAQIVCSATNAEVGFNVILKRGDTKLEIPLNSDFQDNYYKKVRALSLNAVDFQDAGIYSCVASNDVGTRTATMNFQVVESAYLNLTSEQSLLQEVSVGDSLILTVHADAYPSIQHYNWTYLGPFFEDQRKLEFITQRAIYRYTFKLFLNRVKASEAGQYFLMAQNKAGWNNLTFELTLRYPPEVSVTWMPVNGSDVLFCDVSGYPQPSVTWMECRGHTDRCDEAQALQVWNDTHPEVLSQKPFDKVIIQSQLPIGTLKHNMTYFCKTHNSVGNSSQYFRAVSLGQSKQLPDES
Assay: not described

binding result: no binding
B1: Ab969.g2 (969gH2gL7) (antibody, human IgG4 S228P, kappa, V domains shown)
VH: EVTLKESGPALVKPTQTLTLTCTFSGFSLTTYGMGVGWIRQPPGKALEWLANIWWDDDKYYNPSLKNRLTISKDTSKNQVVLTMTNMDPVDTATYYCARIGPIKYPTAPYRYFDFWGQGTMVTVSS
VL: DIQMTQSPSSLSASVGDRVTITCLASEDIYDNLAWYQQKPGKAPKLLIYYASSLQDGVPSRFSGSGSGTDYTLTISSLQPEDFATYYCLQDSEYPWTFGGGTKVEIKR
notes: Full-length humanised IgG4 (S241P), human kappa (Km3 allotype); also called 969gH2gL7 DG; Ab969.2
